Assay results taken from paper PMC10981135.
Read-outs that look alike come from different tables or passages of the source.

Experiments:
Assay in all cases: BLI
[1] = biological target: T1, PfAlba6 Y28A (Plasmodium falciparum 3D7, UniProt Q8I617 1-96, Y28A)
T1 sequence: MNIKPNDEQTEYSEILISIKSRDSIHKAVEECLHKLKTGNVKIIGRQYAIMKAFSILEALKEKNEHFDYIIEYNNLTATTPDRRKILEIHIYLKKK

[2] = biological target: T2, PfAlba6 (Plasmodium falciparum 3D7, UniProt Q8I617)
T2 sequence: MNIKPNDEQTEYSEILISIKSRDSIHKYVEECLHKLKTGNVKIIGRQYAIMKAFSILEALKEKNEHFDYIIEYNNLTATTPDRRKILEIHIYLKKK

[3] = biological target: T1, PfAlba6 Y28A; remark: listed apart in the source

B1: 28 bp dsDNA (C28) (dsDNA)
DNA 1: TGGCGAAAGGGGGTTGTGCTGCAAGGCG
DNA 2: CGCCTTGCAGCACAACCCCCTTTCGCCA
- Kd [1]: 0.01 ± 0.0009 µM
- Kd [2]: 0.01 ± 0.00037 µM
- Kd [3]: 0.0121 ± 0.00083 µM
